In US20090257987A1, “Method of generating dopamine-secreting cells” (Ramot At Tel Aviv University Ltd., priority 2008, published 2009):

Assays:
Type in all cases: cell-based
human MSCs [1] = experiment: Bright-light microscopy of cell morphology after induction; conditions: from MSC fibroblast shape
Protocol: (§1) Induction of differentiation: The differentiation protocol was composed of 2 steps. In step 1, cells were transferred to serum-free medium (DMEM) supplemented with 2 mM glutamine, 100 μg/ml streptomycin, 100 units/ml penicillin, 12.5 units/ml nystatin (Biological Industries), N2 supplement (Invitrogen, New Haven, Conn.) and 20 ng/ml fibroblast growth factor 2 and epidermal growth factor (both from R&D Systems, Minneapolis, Minn.) for 48-72 hours. In step 2, the medium was changed to Basic induction medium containing Neurobasal, B27 (both from Invitrogen), in addition to 1 mM dibutyryl cyclic AMP (dbcAMP), 3-isobutyl-1-methyl-xanthine (IBMX), and 200 μM ascorbic acid (all from Sigma, St Louis, Mo.). The following factors were added to the Basic induction medium in different combinations: brain-derived neurotrophic factor (BDNF; 50 ng/ml), glial-derived neurotrophic factor (GDNF;10 ng/ml), neurturin (100 ng/ml), neurotrophin 3 (NT3; 50 ng/ml), and fibroblast growth factor 8 (FGF8; 100 ng/ml (all from Cytolab, Rehovot, Israel); transforming growth factor β3 (TGFβ3; 2 ng/ml), sonic hedgehog (Shh; 500 ng/ml, both from R&D); estrogen (0.1 μM, Sigma); and all-trans-retinoic acid (RA; 0.1 μM, Sigma).

human MSCs [2] = experiment: Intracellular FACS analysis of TH expression; conditions: none of the untreated cells
Protocol: Induction of differentiation: The differentiation protocol was composed of 2 steps. In step 1, cells were transferred to serum-free medium (DMEM) supplemented with 2 mM glutamine, 100 μg/ml streptomycin, 100 units/ml penicillin, 12.5 units/ml nystatin (Biological Industries), N2 supplement (Invitrogen, New Haven, Conn.) and 20 ng/ml fibroblast growth factor 2 and epidermal growth factor (both from R&D Systems, Minneapolis, Minn.) for 48-72 hours. In step 2, the medium was changed to Basic induction medium containing Neurobasal, B27 (both from Invitrogen), in addition to 1 mM dibutyryl cyclic AMP (dbcAMP), 3-isobutyl-1-methyl-xanthine (IBMX), and 200 μM ascorbic acid (all from Sigma, St Louis, Mo.). […]
Intracellular fluorescence-activated cell sorter (FACS) analysis: Cells were harvested from the tissue culture flasks, centrifuged, and resuspended in phosphate-buffered saline (PBS). […] The results were analyzed with CellQuest software. […]

human MSCs [3] = experiment: Western blot analysis of TH protein expression after differentiation protocols; conditions: result in words
Protocol: MSC isolation, culture, and characterization: Fresh bone marrow aspirates harvested from the iliac crests of adult donors (age 19-76) were diluted with Hanks' balanced salt solution. Mononuclear cells were isolated by centrifugation in Unisep-Maxi tubes (Novamed, Jerusalem, Israel) by density gradient. The cells were then plated in Dulbecco's Modified Eagle's Medium (DMEM) supplemented with 15% fetal bovine serum (FBS), 2 mM glutamine, 100 μg/ml streptomycin, 100 units/ml penicillin, 12.5 units/ml nystatin (Biological Industries, Beit HaEmek, Israel) in polystyrene plastic 75-cm^2 tissue-culture flasks. After 24 hours, nonadherent cells were removed. The medium was changed every 3-4 days. Adherent cells were cultured to 70%-90% confluence and reseeded at a density of 5,000-10,000 cells/cm^2. The cells were maintained at 37° C. in a humidified 5% CO2 incubator. The MSCs were characterized for their cell-surface phenotype and their mesenchymal differentiation capacity, as previously described (Blondheim er al., 2006, Stem Cells Dev 15:141-164).
as §1
Western blot: Total protein was extracted by suspending the harvested cells in lysis buffer containing 10 mM Tris base (U.S. Biochemical Corporation, Cleveland, Ohio), 5 mM EDTA (Merck, Whitehouse Station, N.J.), 140 mM sodium chloride (NaCl; BioLab, Jerusalem, Israel), 10 mM sodium fluoride (NaF; Sigma), 0.5% NP 40 (U.S. Biochemical Corporation), and 1 μM phenylmethylsulfonyl fluoride (PMSF; Sigma). Following incubation on ice for 30 minutes, the mixture was centrifuged and the supernatants were collected. Protein content was determined by the BCA protein assay kit (Pierce, Rockford, Ill.). Twenty-five micrograms of protein from each sample were subjected to sodium dodecyl-sulfate (SDS)-polyacrylamide gel electrophoresis (PAGE) (12.5% acrylamide), followed by electrophoretic transfer to nitrocellulose membrane (Schleicher & Schuell, Dassel, Germany). Membranes were probed by mouse anti-TH (1:10,000, Sigma) and mouse anti β-actin (1:10,000, Chemicon, Billerica, Mass.) and then by goat anti-mouse horseradish peroxidase conjugated antibody (1:10,000) (Jackson, West Grove, Pa.) and rabbit anti-emerin (1:5,000, Santa Cruz Biotechnology, Santa Cruz, Calif.), followed by goat anti-rabbit horseradish peroxidase conjugated secondary antibody (1:10,000, Sigma). Adequate controls included HeLa cells (ATCC, Manassas, Va.) as negative control and neuroblastoma M17 cells (BE (2)-M17, ATCC) as positive control. Proteins of interest were detected using the enhanced Super Signal® chemiluminescent detection kit (Pierce).

human MSCs [4] = experiment: Immunocytochemistry for neuronal markers Tuj1 and NeuN
Protocol: Induction of differentiation: The differentiation protocol was composed of 2 steps. In step 1, cells were transferred to serum-free medium (DMEM) supplemented with 2 mM glutamine, 100 μg/ml streptomycin, 100 units/ml penicillin, 12.5 units/ml nystatin (Biological Industries), N2 supplement (Invitrogen, New Haven, Conn.) and 20 ng/ml fibroblast growth factor 2 and epidermal growth factor (both from R&D Systems, Minneapolis, Minn.) for 48-72 hours. In step 2, the medium was changed to Basic induction medium containing Neurobasal, B27 (both from Invitrogen), in addition to 1 mM dibutyryl cyclic AMP (dbcAMP), 3-isobutyl-1-methyl-xanthine (IBMX), and 200 μM ascorbic acid (all from Sigma, St Louis, Mo.). […] Cells were photographed with a fluorescence Olympus IX70-[…] microscope with a fluorescent light source (excitation wavelength, 330-385 nm; barrier filter, 420 nm) and a U-MNU filter cube (Olympus, Center Valley, Pa.).

B1: brain-derived neurotrophic factor (protein, UniProt P23560 19-247, looked up)
Neurotrophic factor BDNF …: APMKEANIRGQGGLAYPGVRTHGTLESVNGPKAGSRGLTSLADTFEHVIEELLDEDQKVRPNEENNKDADLYTSRVMLSSQVPLEPPLLFLLEEYKNYLDAANMSMRVRRHSDPARRGELSVCDSISEWVTAADKKTAVDMSGGTVTVLEKVPVSKGQLKQYFYETKCNPMGYTKEGCRGIDKRHWNSQCRTTQSYVRALTMDSKKRIGWRFIRIDTSCVCTLTIKRGR
notes: brain-derived neurotrophic factor (50 ng/ml) added to the Basic induction medium
- cell morphology (human MSCs [1]): neuron-like appearance
- induced cells expressing the TH protein at a detectable level (human MSCs [2]): More than 30%
- TH protein expression level normalized to actin (human MSCs [3]; listed as BDNF): directly affected the TH protein expression level
- TH protein expression level normalized to actin (human MSCs [3]; listed as BDNF alone): significant results
- NeuN staining (human MSCs [4]): stained positive
- Tuj 1 expression (human MSCs [4]; versus untreated MSCs): higher levels
